Reference: the supplement of paper PMC11780869

Test system: Bacillus subtilis
Assay: cleaved RNA product abundance (RNA/gDNA barcode ratio) relative to median wild-type variant (ratio to wild type); higher = more accumulation of the downstream cleavage product
Conditions: cleavage site: cggR-gapA (positions -7 to +36 mutated)
In short: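 Oligos with a 9% error rate were used to build barcoded, mutagenized RNase Y cleavage-site windows within truncated aprE or tetM reporter mRNAs, which were integrated into the B. subtilis chromosome. Cultures were grown in LB at 37°C between OD600 0.0003 and 0.3. Cleaved RNA was gel-selected, reverse transcribed and barcode-sequenced, as were genomic DNA barcodes, and UMIs were collapsed. Cleaved product abundance is the scaled RNA:gDNA barcode ratio, with the median construct carrying the unmutated site as reference.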

[1] = experiment (reporter, strain, medium): exp 4a: truncated aprE reporter, strain BJT201 with 2% xylose (RNase J1 expressed)
[2] = experiment (reporter, strain, medium): exp 2b: truncated aprE reporter, strain BJT200
[3] = experiment (reporter, strain, medium): exp 6: tetM reporter, strain 168

Sequence	cleaved RNA product abundance [1]	cleaved RNA product abundance [2]	cleaved RNA product abundance [3]
ACAGACGAAGGAGCCGCAAAGAAGTTATTAAGGGATGAATAATCCTTCGATATAAATATCTCTCACTTATTTAAA	0.257		
ACAGACGAAGGAGCCGCAAAGAAGTTATTAAGGGATGAATAATCGCACAATATAAATATCTCTCACTTATTTAAA	0.0643		
ACAGACGAAGGAGCCGCAAAGAAGTTATTAAGGGATGAATAATCGCTAAATATAAATATCTCTCACTTATTTAAA		0.0982	
ACAGACGAAGGAGCCGCAAAGAAGTTATTAAGGGATGAATAATCGCTCAAAATAAATATCTCTCACTTATTTAAA	0.116		
ACAGACGAAGGAGCCGCAAAGAAGTTATTAAGGGATGAATAATCGCTCAATATAAATACCTCTCACTTATTTAAA		0.0956	
ACAGACGAAGGAGCCGCAAAGAAGTTATTAAGGGATGAATAATCGCTCAATATAAATATCTCTCACTTATTTAAA	0.12	0.101	0.0971
ACAGACGAAGGAGCCGCAAAGAAGTTATTAAGGGATGAATAATCGCTCAATATATATATCTCTCACTTATTTAAA	0.0772	0.113	
ACAGACGAAGGAGCCGCAAAGAAGTTATTAAGGGATGAATAATCGCTCAATATTAATATCTCTCACTTATTTAAA		0.0992	
ACAGACGAAGGAGCCGCAAAGAAGTTATTAAGGGATGAATAATCGCTCAATGTAAATATCTCTCACTTATTTAAA	0.048		
ACAGACGAAGGAGCCGCAAAGAAGTTATTAAGGGATGAATAATCGCTCATTATAAATATCTCTCACTTATTTAAA		0.0605	
ACAGACGAAGGAGCCGCAAAGAAGTTATTAAGGGATGAATAATCGTTCAATATAAATATCTCTCACTTATTTAAA	0.0943		
ACAGACGAAGGAGCCGCAAAGAAGTTATTAAGGGATGAATAATCTATCAATATAAATATCTCTCACTTATTTAAA	0.135		
ACAGACGAAGGAGCCGCAAAGAAGTTATTAAGGGATGAATAATCTCACAATATAAATATCTCTCACTTATTTAAA	0.262	0.18	
ACAGACGAAGGAGCCGCAAAGAAGTTATTAAGGGATGAATAATCTCTAAATATAAATATCTCTCACTTATTTAAA	0.558	0.627	
ACAGACGAAGGAGCCGCAAAGAAGTTATTAAGGGATGAATAATCTCTCAAAATAAATATCTCTCACTTATTTAAA	0.283	0.283	
ACAGACGAAGGAGCCGCAAAGAAGTTATTAAGGGATGAATAATCTCTCAACATAAATATCTCTCACTTATTTAAA	0.156		
ACAGACGAAGGAGCCGCAAAGAAGTTATTAAGGGATGAATAATCTCTCAATATAAAAATCTCTCACTTATTTAAA	0.43	0.464	
ACAGACGAAGGAGCCGCAAAGAAGTTATTAAGGGATGAATAATCTCTCAATATAAATAACTCTCACTTATTTAAA		0.645	
ACAGACGAAGGAGCCGCAAAGAAGTTATTAAGGGATGAATAATCTCTCAATATAAATATCTCTCACTTATTTAAA	0.738	0.688	0.96
ACAGACGAAGGAGCCGCAAAGAAGTTATTAAGGGATGAATAATCTCTCAATATAAATATTTCTCACTTATTTAAA	0.948		

Sequence	cleaved RNA product abundance [1]	cleaved RNA product abundance [2]	cleaved RNA product abundance [3]
ACAGACGAAGGAGCCGCAAAGAAGTTATTAAGGGATGAATAATCTCTCAATATAAATTTCTCTCACTTATTTAAA	0.708		
ACAGACGAAGGAGCCGCAAAGAAGTTATTAAGGGATGAATAATCTCTCAATATATATATCTCTCACTTATTTAAA	0.989	0.682	
ACAGACGAAGGAGCCGCAAAGAAGTTATTAAGGGATGAATAATCTCTCATTATAAATATCTCTCACTTATTTAAA	0.351		
ACAGACGAAGGAGCCGCAAAGAAGTTATTAAGGGATGAATAATCTCTCTATATAAATATCTCTCACTTATTTAAA	0.292		
ACAGACGAAGGAGCCGCAAAGAAGTTATTAAGGGATGAATAATCTCTGAATATAAATATCTCTCACTTATTTAAA	0.634		
ACAGACGAAGGAGCCGCAAAGAAGTTATTAAGGGATGAATAATCTGTCAATATAAATATCTCTCACTTATTTAAA	0.123	0.0956	
ACAGACGAAGGAGCCGCAAAGAAGTTATTAAGGGATGAATAATCTTTCAATATAAATATCTCTCACTTATTTAAA	0.122		
ACAGACGAAGGAGCCGCAAAGAAGTTATTAAGGGATGAATAATGACTCAATATAAATATCTCTCACTTATTTAAA	0.142		
ACAGACGAAGGAGCCGCAAAGAAGTTATTAAGGGATGAATAATGCATCAATATAAATATCTCTCACTTATTTAAA	0.159		
ACAGACGAAGGAGCCGCAAAGAAGTTATTAAGGGATGAATAATGCCACAATATAAATATCTCTCACTTATTTAAA	0.0904		
ACAGACGAAGGAGCCGCAAAGAAGTTATTAAGGGATGAATAATGCCCCAATATAAATATCTCTCACTTATTTAAA	0.134		
ACAGACGAAGGAGCCGCAAAGAAGTTATTAAGGGATGAATAATGCCTAAATATAAATATCTCTCACTTATTTAAA	0.149		
ACAGACGAAGGAGCCGCAAAGAAGTTATTAAGGGATGAATAATGCCTCAAAATAAATATCTCTCACTTATTTAAA	0.173		
ACAGACGAAGGAGCCGCAAAGAAGTTATTAAGGGATGAATAATGCCTCAATAGAAATATCTCTCACTTATTTAAA	0.0653		
ACAGACGAAGGAGCCGCAAAGAAGTTATTAAGGGATGAATAATGCCTCAATATAAAAATCTCTCACTTATTTAAA	0.159	0.15	
ACAGACGAAGGAGCCGCAAAGAAGTTATTAAGGGATGAATAATGCCTCAATATAAATATCTCTCACTTATTTAAA	0.17	0.129	0.128
ACAGACGAAGGAGCCGCAAAGAAGTTATTAAGGGATGAATAATGCCTCACTATAAATATCTCTCACTTATTTAAA	0.142		
ACAGACGAAGGAGCCGCAAAGAAGTTATTAAGGGATGAATAATGCCTCATTATAAATATCTCTCACTTATTTAAA	0.127		
ACAGACGAAGGAGCCGCAAAGAAGTTATTAAGGGATGAATAATGCCTCTATATAAATATCTCTCACTTATTTAAA		0.111	
ACAGACGAAGGAGCCGCAAAGAAGTTATTAAGGGATGAATAATGGCTCAATATAAATATCTCTCACTTATTTAAA	0.0723		

Sequence	cleaved RNA product abundance [1]	cleaved RNA product abundance [2]	cleaved RNA product abundance [3]
ACAGACGAAGGAGCCGCAAAGAAGTTATTAAGGGATGAATAATGTCTCAATATAAATATCTCTCACTTATTTAAA	0.0823		
ACAGACGAAGGAGCCGCAAAGAAGTTATTAAGGGATGAATAATTACTCAATATAAATATCTCTCACTTATTTAAA	0.137	0.0971	0.11
ACAGACGAAGGAGCCGCAAAGAAGTTATTAAGGGATGAATAATTCATCAATATAAATATCTCTCACTTATTTAAA	0.201		
ACAGACGAAGGAGCCGCAAAGAAGTTATTAAGGGATGAATAATTCCACAATATAAATATCTCTCACTTATTTAAA	0.148		
ACAGACGAAGGAGCCGCAAAGAAGTTATTAAGGGATGAATAATTCCGCAATATAAATATCTCTCACTTATTTAAA	0.188		
ACAGACGAAGGAGCCGCAAAGAAGTTATTAAGGGATGAATAATTCCTAAATATAAATATCTCTCACTTATTTAAA	0.508		
ACAGACGAAGGAGCCGCAAAGAAGTTATTAAGGGATGAATAATTCCTCAAAATAAATATCTCTCACTTATTTAAA	0.331		
ACAGACGAAGGAGCCGCAAAGAAGTTATTAAGGGATGAATAATTCCTCAACATAAATATCTCTCACTTATTTAAA	0.183	0.134	
ACAGACGAAGGAGCCGCAAAGAAGTTATTAAGGGATGAATAATTCCTCAAGATAAATATCTCTCACTTATTTAAA	0.256	0.146	
ACAGACGAAGGAGCCGCAAAGAAGTTATTAAGGGATGAATAATTCCTCAATATAAAAATCTCTCACTTATTTAAA	0.86		
ACAGACGAAGGAGCCGCAAAGAAGTTATTAAGGGATGAATAATTCCTCAATATAAATATCTCTCACTTATTTAAA	0.616	0.506	0.494
ACAGACGAAGGAGCCGCAAAGAAGTTATTAAGGGATGAATAATTCCTCAATATAAATGTCTCTCACTTATTTAAA	0.564		
ACAGACGAAGGAGCCGCAAAGAAGTTATTAAGGGATGAATAATTCCTCAATATAAATTTCTCTCACTTATTTAAA	0.625		
ACAGACGAAGGAGCCGCAAAGAAGTTATTAAGGGATGAATAATTCCTCAATATAATTATCTCTCACTTATTTAAA	0.254	0.298	
ACAGACGAAGGAGCCGCAAAGAAGTTATTAAGGGATGAATAATTCCTCAATATACATATCTCTCACTTATTTAAA	0.498		
ACAGACGAAGGAGCCGCAAAGAAGTTATTAAGGGATGAATAATTCCTCAATTTAAATATCTCTCACTTATTTAAA	0.0634	0.0889	
ACAGACGAAGGAGCCGCAAAGAAGTTATTAAGGGATGAATAATTCCTCACTATAAATATCTCTCACTTATTTAAA	0.156	0.132	
ACAGACGAAGGAGCCGCAAAGAAGTTATTAAGGGATGAATAATTCCTCATTATAAATATCTCTCACTTATTTAAA	0.306	0.177	
ACAGACGAAGGAGCCGCAAAGAAGTTATTAAGGGATGAATAATTCCTCCATATAAATATCTCTCACTTATTTAAA	0.119	0.102	
